Publication PMC2575037 (Protein expression and purification, 2008)

Experiments:
bDHFR [1] = target: T1, bDHFR (Bos taurus, UniProt P00376); assay: spectrophotometric DHFR assay at […] nm; format: biochemical; details: read-out: % inhibition after preincubation with 0.68 mM
T1 sequence (P00376 1-187): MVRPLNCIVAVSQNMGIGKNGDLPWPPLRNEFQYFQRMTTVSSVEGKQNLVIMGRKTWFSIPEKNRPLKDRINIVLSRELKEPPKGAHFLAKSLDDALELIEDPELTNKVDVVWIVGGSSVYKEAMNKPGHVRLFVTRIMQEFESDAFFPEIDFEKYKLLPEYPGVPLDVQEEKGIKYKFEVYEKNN

mDHFR = target: T2, mDHFR (Mus musculus, UniProt P00375); assay: spectrophotometric DHFR assay at […] nm; format: biochemical; details: read-out: % inhibition at 122 μM
T2 sequence (P00375 1-187): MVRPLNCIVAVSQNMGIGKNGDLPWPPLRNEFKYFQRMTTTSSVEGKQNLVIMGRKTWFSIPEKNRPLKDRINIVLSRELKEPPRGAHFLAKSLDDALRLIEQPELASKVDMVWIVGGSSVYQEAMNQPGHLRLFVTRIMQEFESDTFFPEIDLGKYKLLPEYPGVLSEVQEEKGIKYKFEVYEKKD

bDHFR [2] = target: T1, bDHFR; assay: spectrophotometric DHFR assay at […] nm; format: biochemical
purified protein [3] = substrate: Nc1nc2c(c(=O)[nH]1)N=C(CNc1ccc(C(=O)N[C@@H](CCC(=O)O)C(=O)O)cc1)CN2; assay: purified protein; details: 37 °C, KCl, co-substrate NADPH
purified protein [4] = substrate: NC(=O)C1=CN([C@@H]2O[C@H](COP(=O)(O)OP(=O)(O)OC[C@H]3O[C@@H](n4cnc5c(N)ncnc54)[C@H](OP(=O)(O)O)[C@@H]3O)[C@@H](O)[C@H]2O)C=CC1; assay: purified protein; format: biochemical, Mus musculus; details: 37 °C, KCl, co-substrate DHFA, varied: cofactor
purified protein [5] = substrate: NC(=O)C1=CN([C@@H]2O[C@H](COP(=O)(O)OP(=O)(O)OC[C@H]3O[C@@H](n4cnc5c(N)ncnc54)[C@H](OP(=O)(O)O)[C@@H]3O)[C@@H](O)[C@H]2O)C=CC1; assay: purified protein; format: biochemical, Bos taurus; details: 37 °C, KCl, co-substrate DHFA, varied: cofactor

O=C(O[C@@H]1Cc2c(O)cc(O)cc2O[C@@H]1c1cc(O)c(O)c(O)c1)c1cc(O)c(O)c(O)c1 [EGCG]
inhibition at 680 µM (bDHFR [1]): 26% | inhibition at 122 µM (mDHFR): 18%

CNCCC=C1c2ccccc2CCc2ccccc21 [nortriptyline]
Ki (bDHFR [2]): 840 ± 250 nM

B1: mDHFR (Mus musculus) (protein)
chain: T2 sequence (P00375 1-187)
Km (purified protein [3]): 0.32 ± 0.05 µM | kcat (purified protein [3]): 29 ± 5 s⁻¹ | kcat/Km (purified protein [3]): 9.2e+07 M⁻¹ s⁻¹ | Km (purified protein [4]): 2.4 ± 0.5 µM | kcat (purified protein [4]): 29 ± 5 s⁻¹

B2: hDHFR (Homo sapiens) (protein)
chain: MVGSLNCIVAVSQNMGIGKNGDLPWPPLRNEFRYFQRMTTTSSVEGKQNLVIMGKKTWFSIPEKNRPLKGRINLVLSRELKEPPQGAHFLSRSLDDALKLTEQPELANKVDMVWIVGGSSVYKEAMNHPGHLKLFVTRIMQDFESDTFFPEIDLEKYKLLPEYPGVLSDVQEEKGIKYKFEVYEKND
Km (purified protein [3]): 2.7 ± 0.5 µM | kcat (purified protein [3]): 40 ± 2 s⁻¹ | kcat/Km (purified protein [3]): 1.5e+07 M⁻¹ s⁻¹

B3: bDHFR (Bos taurus) (protein)
chain: T1 sequence (P00376 1-187)
Km (purified protein [3]): 0.35 ± 0.13 µM | kcat (purified protein [3]): 24 ± 7 s⁻¹ | kcat/Km (purified protein [3]): 6.8e+07 M⁻¹ s⁻¹ | Km (purified protein [5]): 3.2 ± 0.6 µM | kcat (purified protein [5]): 24 ± 7 s⁻¹
